B1: K (peptide)
peptide: Ac-KIAALKEKIAALKEKIAALKEGW-NH2
notes: designed coiled-coil zipper peptide K; printed as Ac-(KIAALKE)3-GW-NH2, the repeat written out three times; unlabelled peptide added to E-SL in the room-temperature cw-EPR; the details of these samples are in S1 Text; also called K-peptide; peptide K; source: synthetic peptide
B2: E (peptide)
peptide: Ac-EIAALEKEIAALEKEIAALEKGY-NH2
notes: designed coiled-coil zipper peptide E; printed as Ac-(EIAALEK)3-GY-NH2, the repeat written out three times; unlabelled peptide added to K-SL or SL-K in the room-temperature cw-EPR; the details of these samples are in S1 Text; also called E-peptide; peptide E; source: synthetic peptide
B3: K-SL (peptide)
peptide: Ac-KIAALKEKIAALKEKIAALKEGWC(MTSL)-NH2
SMILES: CC[C@H](C)[C@H](NC(=O)[C@H](CCCCN)NC(C)=O)C(=O)N[C@@H](C)C(=O)N[C@@H](C)C(=O)N[C@@H](CC(C)C)C(=O)N[C@@H](CCCCN)C(=O)N[C@@H](CCC(=O)O)C(=O)N[C@@H](CCCCN)C(=O)N[C@H](C(=O)N[C@@H](C)C(=O)N[C@@H](C)C(=O)N[C@@H](CC(C)C)C(=O)N[C@@H](CCCCN)C(=O)N[C@@H](CCC(=O)O)C(=O)N[C@@H](CCCCN)C(=O)N[C@H](C(=O)N[C@@H](C)C(=O)N[C@@H](C)C(=O)N[C@@H](CC(C)C)C(=O)N[C@@H](CCCCN)C(=O)N[C@@H](CCC(=O)O)C(=O)NCC(=O)N[C@@H](Cc1c[nH]c2ccccc12)C(=O)N[C@@H](CSSCC1=CC(C)(C)N([O])C1(C)C)C(N)=O)[C@@H](C)CC)[C@@H](C)CC
notes: designed coiled-coil zipper peptide K; printed as Ac-(KIAALKE)3-GWC(SL)-NH2, the repeat written out three times; degree of spin labelling around 70%; also called K-peptide, spin labelled at the C-terminus
B4: SL-K (peptide)
peptide: Ac-C(MTSL)KIAALKEKIAALKEKIAALKEGW-NH2
SMILES: CC[C@H](C)[C@H](NC(=O)[C@H](CCCCN)NC(=O)[C@H](CSSCC1=CC(C)(C)N([O])C1(C)C)NC(C)=O)C(=O)N[C@@H](C)C(=O)N[C@@H](C)C(=O)N[C@@H](CC(C)C)C(=O)N[C@@H](CCCCN)C(=O)N[C@@H](CCC(=O)O)C(=O)N[C@@H](CCCCN)C(=O)N[C@H](C(=O)N[C@@H](C)C(=O)N[C@@H](C)C(=O)N[C@@H](CC(C)C)C(=O)N[C@@H](CCCCN)C(=O)N[C@@H](CCC(=O)O)C(=O)N[C@@H](CCCCN)C(=O)N[C@H](C(=O)N[C@@H](C)C(=O)N[C@@H](C)C(=O)N[C@@H](CC(C)C)C(=O)N[C@@H](CCCCN)C(=O)N[C@@H](CCC(=O)O)C(=O)NCC(=O)N[C@@H](Cc1c[nH]c2ccccc12)C(N)=O)[C@@H](C)CC)[C@@H](C)CC
notes: designed coiled-coil zipper peptide K; printed as Ac-C(SL)-(KIAALKE)3-GW-NH2, the repeat written out three times; degree of spin labelling around 80%; also called K-peptide, spin labelled at the N-terminus; Cys-K
B5: E-SL (peptide)
peptide: Ac-EIAALEKEIAALEKEIAALEKGYC(MTSL)-NH2
SMILES: CC[C@H](C)[C@H](NC(=O)[C@H](CCC(=O)O)NC(C)=O)C(=O)N[C@@H](C)C(=O)N[C@@H](C)C(=O)N[C@@H](CC(C)C)C(=O)N[C@@H](CCC(=O)O)C(=O)N[C@@H](CCCCN)C(=O)N[C@@H](CCC(=O)O)C(=O)N[C@H](C(=O)N[C@@H](C)C(=O)N[C@@H](C)C(=O)N[C@@H](CC(C)C)C(=O)N[C@@H](CCC(=O)O)C(=O)N[C@@H](CCCCN)C(=O)N[C@@H](CCC(=O)O)C(=O)N[C@H](C(=O)N[C@@H](C)C(=O)N[C@@H](C)C(=O)N[C@@H](CC(C)C)C(=O)N[C@@H](CCC(=O)O)C(=O)N[C@@H](CCCCN)C(=O)NCC(=O)N[C@@H](Cc1ccc(O)cc1)C(=O)N[C@@H](CSSCC1=CC(C)(C)N([O])C1(C)C)C(N)=O)[C@@H](C)CC)[C@@H](C)CC
notes: designed coiled-coil zipper peptide E; printed as Ac-(EIAALEK)3-GYC(SL)-NH2, the repeat written out three times; degree of spin labelling around 80%; also called E-peptide, spin labelled at the C-terminus; E-Cys

The data set “E-SL” deals with B5. Description: continuous-wave EPR at room temperature; solution; rotation-correlation time of the spin-labelled peptide with and without the unlabelled partner; described in S1 Text. The conditions noted are these: both partners purified.
The target of data set [1] is B3. The description is as above. The conditions noted are these: both partners purified.
The target in data set [2] is B4. Described as above. The conditions noted are these: both partners purified.
Data set [3] deals with the molecule itself. Description: continuous-wave EPR of frozen solution; 120 K, 9.7 GHz; PBS with 20% (wt) glycerol; total peptide 0.3 mM, mixtures equimolar; line broadening against free MTSL, distances from simulation of the spectra.
Data set [4] concerns the molecule itself. The data set is described as follows: DEER (double electron-electron resonance); frozen solution, 40 K, 9.7 GHz; PBS with 20% (wt) glycerol; total peptide 0.3 mM, mixtures equimolar; same samples as for cw-EPR; Tikhonov regularization.
The target of data set [5] is B4. Described as above. Conditions: both partners purified.
Data set [6] addresses B3. Description: continuous-wave EPR of frozen solution; 120 K, 9.7 GHz; PBS with 20% (wt) glycerol; total peptide 0.3 mM, mixtures equimolar; line broadening against free MTSL, distances from simulation of the spectra. The conditions noted are these: both partners purified.

*: point of attachment. MTSL = CC1(C)C=C(CS*)C(C)(C)N1[O]

In the case of B1, the binding result with E-SL is on record as “binds”.
As for B2, the binding result in the data set with K-SL [1] and in the data set with SL-K [2] was “binds” throughout.
Consider B3, for which, in data set [3], the binding result was “binds”.
B4: in data set [4], the binding result is “binds”.
For B5, the binding result in the data set with SL-K [5] and in the data set with K-SL [6] was “binds” in each case.

Values taken from PMC5774749, “Coiled-coil formation of the membrane-fusion K/E peptides viewed by electron paramagnetic resonance” (PLoS ONE, 2018).
